No end group written: not given here.
What was measured:
[1] = tested on: T24 bladder carcinoma cells; test: Sensitization of adriamycin-resistant T24 cells (cell survival); format: cell-based; conditions: 10 μg/ml adriamycin alone
Protocol: FIG. 8 is a schematic illustration showing the effect of a compound identified as being capable of dislodging a HID 7mer from XIAP BIR3 on cell survival of T24 bladder carcinoma cells after 24 hours of exposure to 10 μg/ml adriamycin.
This is what we would expect from a compound that blocks the ability of IAPs to block caspases once the cell death pathways are activated by a death stimulus such as chemotherapy or radiation. Cancer cells in vivo may also die by the simple addition of the compound if the cancer cell is stressed by oncogene activation, nutrient deprivation, or loss of contact, and the IAPs are blocking caspases from effecting programmed cell death. The compound would be expected to antagonize IAP function and allow caspase activation under these situations.

[2] = biological target: T1, XIAP BIR3 (Homo sapiens, UniProt P98170); conditions: previously shown; cited from earlier work
T1 construct: as the C-terminal portion of XIAP lacking BIR1 and BIR2, and containing BIR3 and the RING domain to the final C-terminal residue; made in house; host or cells: E. coli
T1 sequence (P98170 246-497 limits assumed): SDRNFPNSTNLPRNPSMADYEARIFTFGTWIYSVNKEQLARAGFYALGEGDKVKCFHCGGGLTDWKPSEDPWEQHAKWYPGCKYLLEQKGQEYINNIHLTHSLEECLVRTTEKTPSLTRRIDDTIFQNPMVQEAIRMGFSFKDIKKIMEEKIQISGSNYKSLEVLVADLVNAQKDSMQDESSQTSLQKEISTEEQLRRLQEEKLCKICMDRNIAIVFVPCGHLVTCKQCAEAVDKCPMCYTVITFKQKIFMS

[3] = biological target: T1, XIAP BIR3; test: Fluorescence polarization HID peptide displacement assay; format: binding; conditions: GST BIR3/Ring, fluorescein-HID probe
Text: We developed an assay to screen for compounds capable of competing for the binding of an IAP-interacting peptide and displacing the peptide from its binding groove on BIR3 of XIAP (FIGS. 2-5). The BIR3 domain was produced as a GST fusion protein in E. Coli, as the C-terminal portion of XIAP lacking BIR1 and BIR2, and containing BIR3 and the RING domain to the final C-terminal residue, and purified to greater than 95% purity. Only the properly folded BIR3 domain is required here, and many fusion and purification strategies are available to achieve this.
The FP assay is based on the following principles: a smaller molecule tumbles more rapidly in solution than a larger one. A tumbling fluor will depolarize plane-polarized light, and any change in tumbling rate due to binding of the peptide to a larger molecule such as XIAP or the displacement of the peptide from XIAP, and therefore any change in fluorescence polarization can be accurately and sensitively measured (FIGS. 2A and 2B). […]
Assays and High Throughput assays. […] Following overnight incubation at 4° C., the fluorescence polarization was measured using a Polarion plate reader (Tecan, Research Triangle Park, N.C.). […]
Upon primary screening, hits were re-supplied from Talon Cheminformatics (Acton, ON, Canada) and a new 20 mM drug stock was prepared in 10% DMSO. […] Fluorescence Polarization Units are expressed in MP (FIG. 6).

Row | Molecule | cell death with adriamycin on its own [1] | binding affinity to XIAP BIR3 [2] | competition with / displacement of fluorescein-labeled HID peptide from XIAP BIR3 [3] | competition with / displacement of fluorescein-labeled HID peptide from XIAP BIR3 ([3]; listed as HID polypeptide)
1 | COc1cccc2c1C(=O)c1c(O)c3c(c(O)c1C2=O)C[C@@](O)(C(=O)CO)C[C@@H]3O[C@H]1C[C@H](N)[C@H](O)[C@H](C)O1 [adriamycin] | does not result in any cell death |  |  | 
2 | Ala-Val-Pro-Phe-Tyr-Leu-Pro-Gly-Gly (AVPFYLPGG; not fully specified (C-terminus); printed as Ala-Val-Pro-Phe-Tyr-Leu-Pro-Gly-Gly; also: fluorescein label (probe form)) [HID peptide, peptide based on Drosophila HID with Gly-Gly spacer] |  | high affinity | compete off the fluorescein-labeled peptide | can compete with labeled HID polypeptide

Source: patent US20030157522A1, “Methods and reagents for peptide-BIR interaction screens” (priority 2001, published 2003)
